Laboratory results taken from US12319742 (SHATTUCK LABS, dated 2025).
Values belong to the binder of their own block, whether it stands above or below them.

Key:
[1] = target: T1, biotinylated recombinant human FcRn-His tagged protein (Acro #FCM-H82W7) (human, UniProt P55899 24-297; P61769 21-119, biotinylated); test: BLI/Octet; biotinylated human FcRn-His on streptavidin biosensor; pH 7.4
T1 construct: also called hFcRn; neonatal Fc receptor
Method: (§1) Figure 5D: FIG. 5D. FcRn binding kinetics by anti-TNFRSF25 antibodies. BLI assay was performed using the Octet Red 96e instrument. Streptavidin biosensors were loaded with biotinylated recombinant human(h) FcRn-His tagged protein (Acro #FCM-H82W7) as the ligand. During the association phase, biosensors were incubated with anti-DR3 candidate antibodies at various concentrations for 600 seconds, followed by a 600-second dissociation phase.
(§2) To detect binding of certain whole antibodies to the neonatal Fc receptor (FcRn) at neutral and acidic pH conditions, streptavidin biosensors were loaded with biotinylated recombinant human FcRn-His tagged protein (Acro #FCM-H82W7) as the ligand. During the association phase, biosensors were incubated with anti-TNFRSF25 antibodies at various concentrations for 600 seconds, followed by a 600 second dissociation phase.

[2] = target: FcγR1 (CD64), BLI reagent (UniProt P12314 16-288, limits assumed); test: BLI; antibody as analyte at 300 nM on FcγR1
[3] = target: T1, biotinylated recombinant human FcRn-His …; test: BLI/Octet; biotinylated human FcRn-His on streptavidin biosensor; pH 6.0
Method: as §1, §2

[4] = target: T1, biotinylated recombinant human FcRn-His …; test: BLI/Octet; biotinylated human FcRn-His on streptavidin biosensor; pH 7.4; pH 7.4
Method: as §1, §2

[5] = target: T2, biotinylated recombinant human TNFRSF25-His tagged (Acro #TN5-H52H3) (human, UniProt Q93038 25-199, biotinylated); test: BLI/Octet; biotinylated TNFRSF25 on streptavidin sensor, antibody in solution; 1:1 Langmuir model
T2 construct: treated as the same protein; also called recombinant biotin-conjugated human TNFRSF25 protein; DR3
T2 sequence (looked up): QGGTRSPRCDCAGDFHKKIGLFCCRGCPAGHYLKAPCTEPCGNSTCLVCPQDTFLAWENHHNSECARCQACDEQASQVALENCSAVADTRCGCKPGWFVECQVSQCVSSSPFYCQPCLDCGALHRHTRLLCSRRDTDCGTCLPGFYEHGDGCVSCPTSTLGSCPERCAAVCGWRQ

[6] = target: T2, biotinylated recombinant human …; test: MSD competition; TNFRSF25 on plate, antibody titrated, then TL1A-rabbit Fc 0.4 µg/ml as competitor
Method: Figure 6: FIG. 6. […] Human TNFRSF25 was precoated on MSD assay plates followed by incubating with various concentrations of anti-TNFRSF25 antibodies.

[7] = target: T2, biotinylated recombinant human …; test: BLI/Octet; biotinylated TNFRSF25 on streptavidin sensor, mAb in solution; 1:1 Langmuir model
Excerpt: Provided herein are monoclonal and biparatopic antibodies that specifically target human TNFRSF25. The monoclonal antibodies were produced in an engineered CHOK1 cell-line by transfecting the cells with vectors genetically encoding the Heavy and Light chain antibody sequences followed by a single-step affinity-capture chromatography using FcXL resins. The final monoclonal antibody preparation was buffer exchanged into PBS, pH 7.4. Production of biparatopic antibodies followed a two-step process. In the first step of the process, the so called Knob-half (or Hole-half) antibody was produced by transfecting an engineered CHOK1 cell-line with vectors genetically encoding the Knob (or the Hole) Heavy chain and the corresponding Light chain sequences. The CHOK1-cell-harvest from the Knob-half antibody and Hole half-antibody was then purified by Protein A column-based chromatography. In the second step of the process, the two half-antibodies were reassembled into the desired biparatopic format by the use of a mild reduction step followed by quenching the reaction with buffer exchange into PBS, pH 7.4. To detect binding of the antibodies to human TNFRSF25, recombinant biotin-conjugated human TNFRSF25 protein was immobilized onto a streptavidin-coated MSD (Meso Scale Discovery) plate and allowed to bind the anti-TNFRSF25 mAbs in solution. Following a washing step, the bound antibodies were detected using a sulfo-tagged anti-human Fc antibody. The results of these MSD assays are shown in arbitrary units (au) on the y-axis of FIG. 1. To determine the binding affinity of the antibodies to recombinant human TNFRSF25 protein, recombinant biotin-conjugated human TNFRSF25 protein was immobilized onto a streptavidin-coated BLI sensor and allowed to bind the anti-TNFRSF25 mAbs in solution phase. The binding affinity (K_D) was calculated using the on-rates (Ka) and off-rates (Kd) of mAb binding to the target using a 1:1 Langmuir binding model in the ForteBio data analysis software.

[8] = target: T3, DcR3 (decoy receptor, recombinant) (UniProt O95407 30-300); test: MSD plate binding; human DcR3 protein immobilized on the plate, sulfo-tag anti-human Fc
T3 construct: also called decoy Receptor, DcR3
T3 sequence (looked up): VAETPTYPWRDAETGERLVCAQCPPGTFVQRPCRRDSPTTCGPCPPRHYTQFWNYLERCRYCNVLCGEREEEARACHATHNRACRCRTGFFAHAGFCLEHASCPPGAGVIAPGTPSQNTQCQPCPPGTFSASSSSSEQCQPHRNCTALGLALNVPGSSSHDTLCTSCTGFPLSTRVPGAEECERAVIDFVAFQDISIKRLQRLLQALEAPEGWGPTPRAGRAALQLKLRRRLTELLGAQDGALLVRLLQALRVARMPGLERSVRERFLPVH

TNFR2 (recombinant) = target: T4, TNFR2 (recombinant) (UniProt P20333 23-257, limits assumed); test: MSD plate binding; human TNFR2 protein immobilized on the plate, sulfo-tag anti-human Fc
T4 sequence (looked up): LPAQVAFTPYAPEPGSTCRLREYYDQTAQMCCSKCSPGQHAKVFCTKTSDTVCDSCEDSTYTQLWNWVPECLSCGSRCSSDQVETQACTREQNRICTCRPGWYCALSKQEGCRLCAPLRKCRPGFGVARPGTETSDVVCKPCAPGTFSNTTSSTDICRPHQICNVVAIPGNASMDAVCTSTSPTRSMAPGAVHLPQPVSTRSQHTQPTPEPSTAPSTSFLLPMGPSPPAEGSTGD

TNFR1 (recombinant) = target: T5, TNFR1 (recombinant) (UniProt P19438 30-211, limits assumed); test: MSD plate binding; human TNFR1 protein immobilized on the plate, sulfo-tag anti-human Fc
T5 sequence (looked up): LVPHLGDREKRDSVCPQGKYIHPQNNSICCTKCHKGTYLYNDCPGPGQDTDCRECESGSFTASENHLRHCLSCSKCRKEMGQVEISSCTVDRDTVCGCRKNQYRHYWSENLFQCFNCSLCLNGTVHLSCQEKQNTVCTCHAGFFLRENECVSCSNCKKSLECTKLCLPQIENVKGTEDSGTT

[9] = target: T2, biotinylated recombinant human …; test: BLI/Octet Red 96e; biotinylated TNFRSF25-His on streptavidin biosensor; 600 s association, 600 s dissociation
Method: Figure 4: FIG. 4. TNFRSF25 binding affinity of anti-TNFRSF25 antibodies. BLI assay was performed using the Octet Red 96e instrument. Streptavidin biosensors were loaded with biotinylated recombinant human TNFRSF25-His tagged (Acro #TN5-H52H3) as the ligand. During the association phase, biosensors were incubated with anti-TNFRSF25 antibodies at various concentrations for 600 seconds, followed by a 600-second dissociation phase.
as §2, with “human TNFRSF25,” for “the neonatal Fc receptor (FcRn) at neutral and acidic pH conditions,”, “TNFRSF25-His” for “FcRn-His”, “tagged” for “tagged protein”, “#TN5-H52H3)” for “#FCM-H82W7)”

[10] = target: T2, biotinylated recombinant human …; test: MSD plate binding; TNFRSF25 precoated, unpurified scFv supernatant in 2-fold serial dilutions, detection of the C-terminal myc tag
Excerpt: (FIG. 2A) TNFRSF25 was precoated on MSD assay plates followed by adding scFv supernatant at 2-fold serial-dilutions followed by detection of the myc tag present on the C-terminus of the scFv's. (FIG. 2B) scFv supernatant were serially diluted and added to an MSD-plate pre-coated with TNFRSF25.

Chain of FcγR1 (CD64), BLI reagent (P12314 16-288 limits assumed): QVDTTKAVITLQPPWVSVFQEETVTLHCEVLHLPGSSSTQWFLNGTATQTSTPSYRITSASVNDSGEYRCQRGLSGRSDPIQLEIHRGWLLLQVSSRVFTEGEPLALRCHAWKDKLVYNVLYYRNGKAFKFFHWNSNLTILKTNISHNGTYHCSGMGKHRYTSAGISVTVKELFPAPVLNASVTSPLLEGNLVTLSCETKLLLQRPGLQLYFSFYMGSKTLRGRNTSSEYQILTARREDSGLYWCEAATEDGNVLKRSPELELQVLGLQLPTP

Kd [1]: 6.54 nM
kon [1]: 190000 M⁻¹ s⁻¹
binding result [2]: binds
Kd [3]: 3.93 nM
koff [3]: 0.000715 s⁻¹
kon [3]: 182000 M⁻¹ s⁻¹
koff [4]: 0.00124 s⁻¹
B1: SL-062 (antibody, human IgG1, kappa)
heavy: not shown
light: AIQLTQSPSSLSASVGDRVTITCRASPGISSALAWYQQKPGKAPKLLMYDESSQESGVPSRFSGSGSGTDFTLTISSLQPEDFATYYCQQFNDYPLTFGGGTKVEIKRTVAAPSVFIFPPSDEQLKSGTASVVCLLNNFYPREAKVQWKVDNALQSGNSQESVTEQDSKDSTYSLSSTLTLSKADYEKHKVYACEVTHQGLSSPVTKSFNRGEC
notes: Same variable regions as SL-033 with wild-type IgG1 Fc; also called clone 062

Kd [5]: 0.14 nM
B2: 033_NH24 biparatopic antibody (bispecific antibody, human IgG1, kappa, L234A L235A)
heavy 1: not shown
light 1: AIQLTQSPSSLSASVGDRVTITCRASPGISSALAWYQQKPGKAPKLLMYDESSQESGVPSRFSGSGSGTDFTLTISSLQPEDFATYYCQQFNDYPLTFGGGTKVEIKRTVAAPSVFIFPPSDEQLKSGTASVVCLLNNFYPREAKVQWKVDNALQSGNSQESVTEQDSKDSTYSLSSTLTLSKADYEKHKVYACEVTHQGLSSPVTKSFNRGEC
heavy 2: EVQLVESGGGSVQPGGSLRLSCAASGFTFSSYGMSWIRQAPGKGLEWISYISSSGGHTYYADSVKGRFTISRDNAKNSLYLQMNSLRAEDTAVYYCARGSGSFDYWGQGTLVTVSSASTKGPSVFPLAPSSKSTSGGTAALGCLVKDYFPEPVTVSWNSGALTSGVHTFPAVLQSSGLYSLSSVVTVPSSSLGTQTYICNVNHKPSNTKVDKKVEPKSCDKTHTCPPCPAPEAAGGPSVFLFPPKPKDTLMISRTPEVTCVVVDVSHEDPEVKFNWYVDGVEVHNAKTKPREEQYNSTYRVVSVLTVLHQDWLNGKEYKCKVSNKALPAPIEKTISKAKGQPREPQVCTLPPSREEMTKNQVSLSCAVKGFYPSDIAVEWESNGQPENNYKTTPPVLDSDGSFFLVSKLTVDKSRWQQGNVFSCSVMHEALHNHYTQKSLSLSPGK
light 2: not shown

IC50 [6]: 0.07 nM
Kd [7]: < 1 nM
binding result [2]: binds
Response (RU) [9]: 2.19 RU
koff [9]: < 1e-07 s⁻¹
kon [9]: 243000 M⁻¹ s⁻¹
B3: SL-033 (antibody, human IgG1, kappa, L234A L235A)
heavy: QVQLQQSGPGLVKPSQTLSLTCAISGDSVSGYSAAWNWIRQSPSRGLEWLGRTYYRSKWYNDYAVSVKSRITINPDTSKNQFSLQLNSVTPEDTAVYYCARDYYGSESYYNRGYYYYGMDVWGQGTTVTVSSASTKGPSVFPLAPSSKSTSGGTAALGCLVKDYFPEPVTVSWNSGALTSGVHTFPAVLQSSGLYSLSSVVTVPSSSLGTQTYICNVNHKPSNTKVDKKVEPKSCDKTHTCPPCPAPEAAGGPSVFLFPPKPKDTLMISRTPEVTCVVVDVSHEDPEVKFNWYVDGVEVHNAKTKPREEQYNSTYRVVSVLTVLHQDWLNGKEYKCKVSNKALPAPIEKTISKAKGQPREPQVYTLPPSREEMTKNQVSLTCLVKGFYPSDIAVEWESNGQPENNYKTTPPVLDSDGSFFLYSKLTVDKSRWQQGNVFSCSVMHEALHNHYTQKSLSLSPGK
light: AIQLTQSPSSLSASVGDRVTITCRASPGISSALAWYQQKPGKAPKLLMYDESSQESGVPSRFSGSGSGTDFTLTISSLQPEDFATYYCQQFNDYPLTFGGGTKVEIKRTVAAPSVFIFPPSDEQLKSGTASVVCLLNNFYPREAKVQWKVDNALQSGNSQESVTEQDSKDSTYSLSSTLTLSKADYEKHKVYACEVTHQGLSSPVTKSFNRGEC
notes: Anti-TNFRSF25 IgG1 with Fc-silencing L234A/L235A; also called clone 033; SL-033 (L234A/L235A)
binding result [8]: no binding (tested: about 200 nM (log nM about 2.3))
binding result (TNFR2 (recombinant)): no binding (tested: about 200 nM (log nM about 2.3))
binding result (TNFR1 (recombinant)): no binding (tested: about 200 nM (log nM about 2.3))

binding result [10]: binds
B4: NH24-162 (scFv, not shown: small tags and cut ends)
scFv: EVQLVESGGGSVQPGGSLRLSCAASGFTFSSYGMSWVRQAPGKGLEWISYISSSGGHTYYADSVKGQFTISRDNAKNSLYLQMNSLRAEDTAVYYCARGSGSFDYWGQGTLVTVSSGGRGSGGGGSGSGGSDIVMTQSPSSLSASVGDRVTITCQASQDISNYLSWYQQKPGKAPKLLISDASNLETGVPSRFSGSGSGTDFTFTISSLQPEDIATYYCQQYDNLPITFGQGTRLEIKR
notes: one of the four variants of group m25; used as unpurified E. coli supernatant; the sheet prints NH24-162; also called NH24-162 scFv
